According to PMC2779157:

Legend:
[1] = biological target: IRF3 (UniProt Q14653); experiment: Superdex-200 gel filtration after cell-free reaction; details: reference: reaction without virus-activated mitochondria; sites S385,S386,S396
[2] = biological target: IRF3, activated in vitro by virus-activated mitochondria (P5) and cytosolic extract (UniProt Q14653); experiment: SEC

Sequence of IRF3 (Q14653 whole entry, change not shown): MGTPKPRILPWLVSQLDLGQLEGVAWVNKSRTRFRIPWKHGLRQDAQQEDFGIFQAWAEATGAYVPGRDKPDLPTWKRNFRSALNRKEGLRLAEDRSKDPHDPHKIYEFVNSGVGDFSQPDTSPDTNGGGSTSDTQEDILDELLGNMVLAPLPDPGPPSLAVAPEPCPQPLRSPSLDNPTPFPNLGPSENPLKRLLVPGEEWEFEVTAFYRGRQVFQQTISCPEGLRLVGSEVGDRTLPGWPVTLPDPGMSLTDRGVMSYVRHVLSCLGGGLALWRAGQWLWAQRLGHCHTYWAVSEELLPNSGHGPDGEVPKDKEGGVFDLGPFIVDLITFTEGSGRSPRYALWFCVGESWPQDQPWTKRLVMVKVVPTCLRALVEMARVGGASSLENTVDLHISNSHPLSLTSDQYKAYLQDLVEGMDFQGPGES

Row | Substance | other: apparent molecular mass [1] | stoichiometry N [2]
1 | IRF3 (from UniProt Q14653) reaction with virus-activated mitochondria (P5) | gained; reference 150 | –
2 | IRF3, activated in vitro by virus-activated mitochondria (P5) and cytosolic extract (from UniProt Q14653 1-427) (natural protein) | – | 2
